Laboratory results published in PMC2744598.

Tests used:
Ede1_rhodamine (yeast) = Ede1_rhodamine (yeast) (UniProt P34216); experiment: fluorescence polarisation
GST-Ede1 UBA (yeast) = GST-Ede1 UBA (yeast) (UniProt P34216); experiment: SPR
GST-hHR23A UBA1 (human) = experiment: SPR
[1] = biological target: GST-DRM2 UBA1 (Arabidopsis); experiment: SPR
[2] = biological target: Dsk2 UBA, fluorescent free domain (yeast) (UniProt P48510); experiment: fluorescence polarisation
[3] = biological target: Ddi1 UBA, fluorescent free domain (yeast) (UniProt P40087); experiment: fluorescence polarisation
[4] = biological target: fluorescein-labeled hHR23A-UBA1 (human); experiment: fluorescence polarisation
[5] = biological target: GST-His/GST-Ede1 heterodimer of the functionally monomeric mixture (not stated | yeast) (UniProt P34216); experiment: SPR

GST-Ede1 UBA (yeast), sequence (P34216 1338-1380): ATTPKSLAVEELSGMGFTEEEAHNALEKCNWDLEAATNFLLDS
Ede1_rhodamine (yeast), sequence (P34216 1338-1380): as above
Ddi1 UBA, fluorescent free domain (yeast), sequence (P40087 389-428): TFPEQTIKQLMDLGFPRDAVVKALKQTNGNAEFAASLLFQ
Dsk2 UBA, fluorescent free domain (yeast), sequence (P48510 327-371): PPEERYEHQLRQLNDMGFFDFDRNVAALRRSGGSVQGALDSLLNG

| Kd (Ede1_rhodamine (yeast)) [µM] | Kd (GST-Ede1 UBA (yeast)) [µM] | Kd (GST-hHR23A UBA1 (human)) [µM] | Kd [1] [µM] | Kd [2] [µM] | Kd [3] [µM] | Kd [4] [µM] | Kd [5] [µM] | Substance |
| --- | --- | --- | --- | --- | --- | --- | --- | --- |
| 86 | 110 | 36 | 140 | – | – | – | – | K48-linked diubiquitin (from UniProt P0CG48 1-76) |
| 31 | 25 | – | – | 1.4 | 50 | 9 | 44 | K48-linked tetraubiquitin (from UniProt P0CG48 1-76) |
| 120 | 48 | 26 | 89 | – | – | – | – | K63-linked diubiquitin (from UniProt P0CG48 1-76) |
| 54 | 6 | 4.7 | – | 2.2 | 92 | 30 | 23 | K63-linked tetraubiquitin (from UniProt P0CG48 1-76) |
